Laboratory results taken from patent US20160083464A1 (MEDICAL AND BIOLOGICAL LABORATORIES, published 2016).

Key:
[1] = biological target: T1, human-derived transmembrane HB-EGF protein (wild type HB-EGF) (human, UniProt Q99075 20-208); assay: flow cytometry on HB-EGF-expressing cells (summary of the selection)
T1 construct: also called human HB-EGF protein; cell surface HB-EGF

mutant HB-EGF F115A = mutant HB-EGF F115A (human, UniProt Q99075 20-208); assay: flow cytometry on 293T cells transiently expressing the mutant, antibody 5 µg/mL
Procedure: (§1) First, prepared were cells expressing amino acid point mutant HB-EGF to be subjected to the flow cytometry. To be more specific, genes encoding mutant HB-EGF shown in Table 1 were prepared by site-directed mutagenesis using the HB-EGF-pQCxmhIPG as a template. The obtained mutant HB-EGF genes were each inserted into an animal cell expression vector pQCxmhIPG to prepare a vector encoding each mutant HB-EGF. […] Thus, cells expressing amino acid point mutant HB-EGF were prepared.
(§2) Next, each of the anti-HB-EGF antibodies (5 μg/mL) and a secondary antibody (manufactured by Beckman Coulter, Inc., catalog number: IM0855, this antibody was diluted to 1/200 for use)) were allowed to react with the cells expressing the wild type HB-EGF or each mutant HB-EGF, and the mean fluorescence intensity was analyzed by the flow cytometry. […] Then, based on the obtained mean fluorescence intensity (antibody reactivity), the binding strength (relative value) of each anti-HB-EGF antibody to each mutant HB-EGF was calculated according to the following formula (Formula *).

mutant HB-EGF I117A = mutant HB-EGF I117A (human, UniProt Q99075 20-208); assay: as above
Procedure: as §1, §2

[2] = biological target: T1, human-derived transmembrane HB-EGF …; assay: flow cytometry with 293T culture supernatant as primary antibody (the FIG. 11 legend says ELISA)
Procedure: The reactivity of the 35-1 chimeric antibody or the 35-1 humanized antibody with HB-EGF was evaluated by the flow cytometry.
The antibody concentration in the culture supernatant was calculated according to a sandwich ELISA method. […] After the plate was washed with 0.05% Tween 20-PBS, an HRP-labeled goat anti-mouse IgG (manufactured by MBL Co., Ltd., code number: 330) having been diluted to 1/10000 was added as a detection antibody in an amount of 50 μL/well and left to stand at room temperature for 1 hour. After the plate was washed with 0.05% Tween 20-PBS, a color developing solution was added thereto in an amount of 50 μL/well and left to stand at room temperature for 20 minutes to develop a color. The color development was terminated by adding 1 M phosphoric acid in an amount of 50 μL/well. Then, the absorbance at 450 nm was measured with a plate reader. Regarding the antibody concentration in the culture supernatant, a standard curve was created based on measured values obtained by serially diluting the antibody solution of a known concentration, and the antibody concentration was calculated from the measured values of the culture supernatant.

T1 sequence (Q99075 20-208): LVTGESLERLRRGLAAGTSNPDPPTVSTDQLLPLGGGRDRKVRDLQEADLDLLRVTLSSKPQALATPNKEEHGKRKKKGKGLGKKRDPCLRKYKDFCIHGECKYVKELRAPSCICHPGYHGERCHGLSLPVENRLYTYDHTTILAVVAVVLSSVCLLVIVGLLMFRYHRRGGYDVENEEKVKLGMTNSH
Chain of mutant HB-EGF I117A (Q99075 20-208 I117A): as the sequence (Q99075 20-208) above, with I98A counted along it
Chain of mutant HB-EGF F115A (Q99075 20-208 F115A): as the sequence (Q99075 20-208) above, with F96A counted along it

binding result [1]	binding result (mutant HB-EGF F115A)	binding result (mutant HB-EGF I117A)	binding result [2]	Binder
			binds	35-1 chimeric antibody (antibody, V domains shown, Variable regions of the 35-1 antibody in Lonza human IgG1 antibody producing vectors (human IgG1 constant region); also called chimerized 35-1 antibody) VH: EVQLQQSGPELVKPRASVKISCKASGYSFSGYYMHWVKQSPEKSLEWIGEINPSTGGITYNQKFKAKATLTVDRSSSTAYMQLKSLTSEDSAVYYCTRITWAFAYWGQGTLVTVSA VL: QIVLTQSPAIMSASPGEKVTMTCSASSSVTYMYWYQQKPGSSPRLLIYDTSNLASGVPVRFSGSGSGTSYSLTISRMEAEDAATYYCQQWSSYPPTFGGGTKLEIK
			binds	35-1 humanized antibody (antibody, V domains shown, CDR-grafted variable regions in a Lonza human IgG1 vector (human IgG1 constant region); also called humanized 35-1 antibody) VH: QVQLVQSGAEVVKPGSSVKVSCKASGYSFSGYYMHWVKQAPGQGLEWIGEINPSTGGITYNQKFKAKATLTVDRSTSTAYMELKSLTSEDTAVYYCTRITWAFAYWGQGTTVTVSS VL: QIVLTQSPTTMAASPGEKITITCSASSSVTYMYWYQQRPGFSPKLLIYDTSNLASGVPVRFSGSGSGTSYSLTIGTMEAEDVATYYCQQWSSYPPTFGGGTKLEIK

Second part, the binder before the results:

Binder	binding result [1]	binding result (mutant HB-EGF F115A)	binding result (mutant HB-EGF I117A)	binding result [2]
35-1 antibody (antibody, mouse IgG1, V domains shown, Variable genes were amplified with mouse IgG1 CH1 and kappa constant region primers) VH: EVQLQQSGPELVKPRASVKISCKASGYSFSGYYMHWVKQSPEKSLEWIGEINPSTGGITYNQKFKAKATLTVDRSSSTAYMQLKSLTSEDSAVYYCTRITWAFAYWGQGTLVTVSA VL: QIVLTQSPAIMSASPGEKVTMTCSASSSVTYMYWYQQKPGSSPRLLIYDTSNLASGVPVRFSGSGSGTSYSLTISRMEAEDAATYYCQQWSSYPPTFGGGTKLEIK	binds	binds	binds	
292 antibody (antibody, mouse IgG1, V domains shown, Variable genes were amplified with mouse IgG1 CH1 and kappa constant region primers) VH: EVQLQQSGPELVKPGASVKISCKASGYSFTGYYMHWVKQSPEKSLEWIGEINPSTGGTTYNQKFKAKATLTLDKSSSTAYMQLKSLTSEDSAVYYCAKSPYWDGAYWGQGTLVTVSA VL: QIVLTQSPAIMSASPGEKVTMTCSASSSISYMYWYQQRPGSSPRLLIYDTSNLASGVPVRFSGSGSGTSHSLTISRMEAEDAATYYCQQWSSYPSTFGGGTKLEIK	binds	binds	binds	
